Measurements as given in the nanobody polyreactivity screen of Harvey et al. (2022).

Assay: yeast display, Sf9 membrane polyspecificity reagent, FACS + sequencing; frameworks hold sequencing errors
How it was run: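 Genes from sorted yeast were amplified by colony PCR, read by MiSeq 2 × 250 sequencing and filtered on CDR length. These cells carried a synthetic nanobody library in Saccharomyces cerevisiae BJ5465 and were sorted by FACS into low and high (top ~1%) gates on anti-HA and streptavidin fluorescence. Polyreactivity is labelled according to the gate of origin.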

| Sequence | polyreactivity (PSR sort gate) |
| --- | --- |
| QVQLVDSGAGLVQAGGSLRLSCAASGRISYVYAMGWYRQAPGKDRELVAGITWSDGSTFYADSVKGSFTISRDNAKNTVYLQMNSLKPEDTAVYYCAARFNRKILGRYYFWGQGTQVTVSS | high polyreactivity |
| QVQLVDSGAGLVQAGGSLRLSCAASGSIYYRYALGWYRQAPRQVRELVAAITQSTDSTYYADSVKGRFTISRDNAKNTVYLQMNSLKPEDTAVYYCAAYLVYYRPYAYGYWGQGTQVTVSS | low polyreactivity |
| QVQLVDSGGALVQAGGSLRLICAASGSTFIINAMGWYRQAPGKDRELVAAISGRGTRTYYADSVKGRFTISRDNAKNSVYLQMKSLKPEDTAVYYCNAVRSLSFTTEHDYWGQGTQVTVSS | high polyreactivity |
| QVQLVDSGGALVQAGGSLRLSCAASGSTFAYYAMGWYRQAPGKERELVAAITASATNTYYADSVKGRFTISRDNAKNTVYLQMNSLKPEDTAVYYCAADDVDVEHQASWDDYDSWGQGTQVTVSS | low polyreactivity |
| QVQLVDSGGALVQAGGSLRLSCAASGSTFVVNAIGWYRQAPGKERELVAAIAGGGSTNYADSVKGRFTISRDNAKNTVYLQMNSLKPEDTAVYYCAVDGVEFSSYGYWGQGTQVTVSS | low polyreactivity |
| QVQLVDSGGGIVQAGGSLRLSCAASGLTFSDYAMGWYRQAPGKEREFVAAITRNGGSTRYADSVKGRFTISRDNAKNTVYLQMNSLKPEDTAVDYCATDVGFGSKQRPHRPGYGYWGQGTQVTVSS | low polyreactivity |
| QVQLVDSGGGIVQAGGSLRLSCAASGSTLKYNAMGWYRQAPGKERELVAAISTSGGNTYYADSVKGRFTISRDNAKNTVYLQMNSLKPEDTAVYYCAKVLGYYYYDYDSWGQGTQVTVSS | low polyreactivity |
| QVQLVDSGGGIVQAGGSLRLSCAASGTFDAYAMGWYRQEPGKERELVASISSSGGSTYYADSVKGRFTITRDNAKNTVYLQMYSLNPEDRAVYYCAATDFWYSGYYWGKGTQVTVSS | low polyreactivity |
| QVQLVDSGGGKVQAGGSLRLSCAASGRTFLVYAMGWYRQAPGKERELVAAISRSGGRTSYADSVKGRFTISRDNAKNTVYLQMNSLKPEDTAVYYCAASGPPCDMDYWGQGTQVTVSS | high polyreactivity |
| QVQLVDSGGGLFQAGGSLRLSCAASGSTFYRYAKGWYRQAPGKERELVATITNSGGSTYYADSVKGRFTISRDNAKNTVYLPRNSLKPEDTAVYYCAAVGGRLRGDRGGYWGQGSQVTVSS | high polyreactivity |
| QVQLVDSGGGLVQAAGSLRLSCAASGSTFVTYAMGGYRTAPGKERELVAAISSGAGTNYADSVKGRFTISRDNAKNTVYLQMNSLKPEDTAVDYCAADKAVGDSTRYYYWGQGTQVTVSS | low polyreactivity |
| QVQLVDSGGGLVQAGASLRLSCAASGIIFTGYAKGWYRQAPGKERDLVAAISGIGTSTYYADSVKGRFTISRDNAKNTVYLQMNSLKPEDTAVYYCAARYVSRRFLGYYYWGQGTQVTVSS | high polyreactivity |
| QVQLVDSGGGLVQAGASLRLSCAASGSIFRFYAMGWYRQAPGKERELVAAITSRGSTNYADSVKGRFTISRDNAKNTVYLQMKSLKPEDTAVYYCAAELVYFVIYDYWGLGTQVTVSS | low polyreactivity |
| QVQLVDSGGGLVQAGATLRLSGAASGRIFGCNAMGWYRQAPGKVRELVAAISNGGSTYYADSVKGRFTISRDNAKNTVYFQMNSLKPEDTAVYYCNAAARIGYARRFYYWGQGTQVTVSS | high polyreactivity |
| QVQLVDSGGGLVQAGCSLRLSCAASGSTFVTNDMGWSRKAPGKERELVAAISSGTSTNYADSVKGRFTISRDNAKNTFYLQMNSLNPEDTAVYYCAADSLKRDDYWGQGTQVTVSS | low polyreactivity |
| QVQLVDSGGGLVQAGGILRLICAASGSTFGFYAMGWYRQAPGKERELVAAITTGGSTNYADSVKGRFTISRDNAKNTVYLQMNSLKPEDTAVYYCNADVFWNPYYDYDFWGQGTQVTVSS | high polyreactivity |
| QVQLVDSGGGLVQAGGILRLSCAASGFILSDNAMGWYRQGPGKERELVAAINSGGSTYYADSVKGRFTISRDNAMNTVYLQMNSLKPEDTAVYYCAADFSTWLRAYDYWGQGTQVTVSS | low polyreactivity |
| QVQLVDSGGGLVQAGGILRLSCAASGNIIYQNALVWSRHAPGKERELVAAITGRGSSTYYADSVKGRFTSSRDNAKNTVYLQMNSLKPEDTAVYYCAADTTPYDGYYGHGYWGQGTQVTVSS | low polyreactivity |
| QVQLVDSGGGLVQAGGILRLSCAASGSIFSSYAMGWYRQAPGKERELVAAITSGGSTYYADSVKGRFTISRDNAKITVYLQMNSLKREDTAVYYCAAYLSYFGYDYWGQGTQVTVSS | low polyreactivity |
| QVQLVDSGGGLVQAGGILRLSCAASGSTFDVYAIGWYRQAPGKEWELVAAITWDGDRTYYADSVKGRFTISRDNAKNTVYLQMNSLKPEDTGVYYCNADEGGNYREDYWGQGTQVTVSS | low polyreactivity |
| QVQLVDSGGGLVQAGGRLRLSCAASGITFYYNAMGWYRQAPGKERELVATISSRGGSTYYADSVKGRFTISRDNAKNTVYLQMNSLKPEDTEVYYCNAGRSRYRWSTTGYTQVRDDYWGQATQVTVSS | high polyreactivity |

| Sequence | polyreactivity (PSR sort gate) |
| --- | --- |
| QVQLVDSGGGLVQAGGRLRLSCAASGRTFSKYAMGWYRQAPGKERELVASITRSGGSTNYADTVKGRFTISRDNAKNTVYLQKNSLKPEDTAVYYCRRKLGRTHDTGFDYWGQGTQVTVSS | low polyreactivity |
| QVQLVDSGGGLVQAGGRLRLSCAASGSTFGWYGMGWYIQAPGKERELVASINWRGSSTYYADSVKGRFTMSRDNAKNTVYLQMNSLKPEDTAVYYCATTRDWAYNYWGQGTQVTVSS | low polyreactivity |
| QVQLVDSGGGLVQAGGRLRLSCAPSGSIIIDNAMGWYRQAPGKERELVAAISSSGGSTHYADSVKGRFTISRDNAKNTVYLQMNSLKPEDTAVYYCAAKRGWRGGYYWGQGTQVTVSS | high polyreactivity |
| QVQLVDSGGGLVQAGGSHRLSCADSGTFVYNAMGWYRQAPGKEREFVAAITKSGTSTSYADSVKGRFTISRDNAKNTVYLQMNSLIPEATAVYYCNARRYWYRRAYSVGYDYWGQGTQVTVSA | high polyreactivity |
| QVQLVDSGGGLVQAGGSLGLSCAASGSIFRNYAMGWYRQAPGKERELVAAISYRVGRTYYADSVKGRFTISRDNAKNSVYLQMNSLNPEDTAVYYCAADSRSPGHDYWGQGTQVTVSS | low polyreactivity |
| QVQLVDSGGGLVQAGGSLPLSCAASGFSFVYYAMAWYREAPGKEREFVAAITERGGSTDYADSVKGRFTISRDNAKNTVYLQMNSLKPEDTAVYYCASRNAYVYGMDYWGQGTQVTVSS | low polyreactivity |
| QVQLVDSGGGLVQAGGSLRITCAASVLTFRRNPMGWYRQAPGKARELLGTITSGGSTNYADTVKGRFTISRDNAKNTVYLQMNSLKPEDTAVYYCNSVHLRIMYYWGQGTQVTVSS | high polyreactivity |
| QVQLVDSGGGLVQAGGSLRLICAASGFIFTDYAMGWYRQAPGKEREFFAAIDWSGGNTYYADSVKGRFTISRDNAKNTVYLQMKSLKPEDTAVYYCAASGSAREYDYWGQGTQVTVSS | low polyreactivity |
| QVQLVDSGGGLVQAGGSLRLICAASGRSFYNYAMGRYSEAPGKERELVAAIAGSGGSTYYADSEKGRVTISRDNAKNTGYLQMNSLKPEDTAVDYCSTSGPQYYSRNFDDWGQGTQVTVSS | low polyreactivity |
| QVQLVDSGGGLVQAGGSLRLISAASGLIFSWYDKGWYRQAPGKERELVAAITTDGDDTYYADSVKGRFTISRDNAKNTVYLQMNSLKPDDTAVYYCAADSELGIRYPDRDYDSWGLGTQVTVSS | low polyreactivity |
| QVQLVDSGGGLVQAGGSLRLSCAASGFIFGKYAMGWYRPAPGKEREFVAAITGNGGSTYYADSVKGRFTISRDNAKNTVYLQMNSLKPEDTAVYYCAADASWELFAWAHYDYWGQGTQVTVSS | low polyreactivity |
| QVQLVDSGGGLVQAGGSLRLSCAASGFIFHRYAMGWYRQAPGKERELVAAISSSGGSTYYADSVKGRFTISRDNAKNTVYLQMNSLKPEDTAVYYCAAYYHDGYEFNYWGQGTQLTVSS | high polyreactivity |
| QVQLVDSGGGLVQAGGSLRLSCAASGFIFKGNAMGWSRQAPGKERELVAAISRSGGRTYYADSVKGRFTISRENAKNTVYLEMNSLKPEDTAVYYGATEGDSFSAYDYWVQGTQVTVSS | high polyreactivity |
| QVQLVDSGGGLVQAGGSLRLSCAASGFIFKRYAMGWYRQAPGKERELVAAINGGGSSTYYADSVKGRFTISRDNAKNTVYLQMNSLKPDDTAVYYCAADTDSWWYYLYYGEGFDYWGQGTQVTVSS | high polyreactivity |
| QVQLVDSGGGLVQAGGSLRLSCAASGFIFSWYAMGWYRQAPGKERELVAAINWSGGSTYYADSVKGRFTISRDNAKNTVYLQMNSLKPEDTAVYYCAAVTSGISKYDYWGQGTQVTVSS | high polyreactivity |
| QVQLVDSGGGLVQAGGSLRLSCAASGFIIGYNAMGWYRQAPGKEREFVAAISYNGGSTRYADSVKGRFTISRDNAKNTVYLQMNSLKPEDTAVYYCAAQKARVYRGAWTRYEYWGQGTQVTVSS | high polyreactivity |
| QVQLVDSGGGLVQAGGSLRLSCAASGFTFADNAMGWYRQAPGKEREFVAAITWTADSTYYADSVKGRFTISRDNAKNTVYVQMNSLKPEDTAVYYCAASYSTIWTLYYYWGQGTQVTVSS | low polyreactivity |
| QVQLVDSGGGLVQAGGSLRLSCAASGFTIHYKAMGWYRQAPGKERELVATISKSAGITSYADSVKGRFTISRDNAKNTVYLQMNSLNPEDTAVYYCAADKSYRRVYYWGQGTQVTVSS | low polyreactivity |
| QVQLVDSGGGLVQAGGSLRLSCAASGFTIVHNAMGWYRQAPGKERELVAAISSSGGRTYYADSVKGRFTISRDNAKNTVYLQMNSLKPEDTAVYYCNARGYRGYDYWGQGTQVTVSS | high polyreactivity |
| QVQLVDSGGGLVQAGGSLRLSCAASGGTISQYAMGWYRQAPGKERELVARISRRGGSTSYADSVKGRFTISRDNAKNTVYLQMNSLKPEDTAVYYCNAVRFYGRWRWIMEYWGQGSQVTVSS | high polyreactivity |
